Experimental data reported in the supplement of paper PMC9112550, “Optimization of the antimicrobial peptide Bac7 by deep mutational scanning” (BMC Biology, 2022).

What follows are sequences tested on Escherichia coli TOP10 (assay: shrunken log2 fold change of peptide-encoding DNA abundance (4.5 h post-induction vs induction); higher = less antimicrobial activity (less host growth inhibition)). Settings: time post-induction: 4.5 h; library: site-saturation at positions 5, 18, 19, 20.
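Note: peptides expressed intracellularly from a pBAD plasmid library in pooled LB shake-flask culture, induced with 0.3% L-arabinose, DNA abundance read by NGS, three biological replicates, DESeq2 with apeglm shrinkage.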

Sequence	shrunken log2 fold change
RRIRARPPRLPRPRPRPPHWPRP	1.08
RRIRMRPPRLPRPRPRPIQTPRP	-0.00151
RRIRDRPPRLPRPRPRPEDVPRP	-0.0018
RRIRERPPRLPRPRPRPNWVPRP	-0.0244
RRIRDRPPRLPRPRPRPRLMPRP	0.163
RRIRFRPPRLPRPRPRPIHPPRP	-0.385
RRIRYRPPRLPRPRPRPFFHPRP	-1.2
RRIRIRPPRLPRPRPRPMSYPRP	0.0721
RRIRMRPPRLPRPRPRPENWPRP	0.795
RRIRGRPPRLPRPRPRPSETPRP	0.223
RRIRPRPPRLPRPRPRPIRFPRP	-0.119
RRIRDRPPRLPRPRPRPWFCPRP	-0.272
RRIRERPPRLPRPRPRPYCVPRP	-0.165
RRIRPRPPRLPRPRPRPDPVPRP	0.214
RRIRSRPPRLPRPRPRPMKQPRP	0.00692
RRIRKRPPRLPRPRPRPWDDPRP	0.0248
RRIRDRPPRLPRPRPRPNYAPRP	-0.457
RRIRCRPPRLPRPRPRPANGPRP	-0.0497
RRIRQRPPRLPRPRPRPKCKPRP	0.0386
RRIRLRPPRLPRPRPRPFDAPRP	0.509
RRIRRRPPRLPRPRPRPVTFPRP	0.00522
RRIRNRPPRLPRPRPRPTRYPRP	0.217
RRIRRRPPRLPRPRPRPGRHPRP	0.212
RRIRGRPPRLPRPRPRPMVKPRP	0.00813
RRIRTRPPRLPRPRPRPNPDPRP	-0.0402

Sequence	shrunken log2 fold change
RRIRFRPPRLPRPRPRPHILPRP	-0.345
RRIRFRPPRLPRPRPRPGYMPRP	-0.922
RRIRNRPPRLPRPRPRPTGWPRP	0.355
RRIRHRPPRLPRPRPRPLNGPRP	-0.178
RRIRARPPRLPRPRPRPQMSPRP	0.0835
RRIRARPPRLPRPRPRPSGQPRP	0.251
RRIRERPPRLPRPRPRPTSMPRP	-0.713
RRIRDRPPRLPRPRPRPWTKPRP	0.0467
RRIRHRPPRLPRPRPRPRTAPRP	0.264
RRIRNRPPRLPRPRPRPDDNPRP	-0.0156
RRIRPRPPRLPRPRPRPRRQPRP	0.673
RRIRYRPPRLPRPRPRPLKVPRP	-0.0432
RRIRERPPRLPRPRPRPHKHPRP	-0.671
RRIRTRPPRLPRPRPRPCDYPRP	-0.0715
RRIRVRPPRLPRPRPRPNKKPRP	-0.0801
RRIRPRPPRLPRPRPRPQIPPRP	-0.0392
RRIRERPPRLPRPRPRPLFYPRP	-0.513
RRIRRRPPRLPRPRPRPRQRPRP	0.636
RRIRMRPPRLPRPRPRPDWPPRP	0.637
RRIRARPPRLPRPRPRPVHRPRP	-0.0852
RRIRARPPRLPRPRPRPYQCPRP	-0.44
RRIRDRPPRLPRPRPRPLIWPRP	0.176
RRIRPRPPRLPRPRPRPSFQPRP	0.0876
RRIRVRPPRLPRPRPRPVGHPRP	-0.166
RRIRNRPPRLPRPRPRPMQPPRP	-0.000687

Sequence	shrunken log2 fold change
RRIRRRPPRLPRPRPRPLRAPRP	1.17
RRIRYRPPRLPRPRPRPRWRPRP	0.585
RRIRFRPPRLPRPRPRPMRSPRP	0.904
RRIRHRPPRLPRPRPRPARFPRP	0.358
RRIRFRPPRLPRPRPRPTSGPRP	0.219
RRIRGRPPRLPRPRPRPTSWPRP	0.782
RRIRVRPPRLPRPRPRPELKPRP	-0.341
RRIRTRPPRLPRPRPRPFQYPRP	-0.0476
RRIRTRPPRLPRPRPRPPTRPRP	0.663
RRIRVRPPRLPRPRPRPQCMPRP	-0.528
RRIRMRPPRLPRPRPRPILHPRP	-0.378
RRIRARPPRLPRPRPRPARLPRP	0.582
RRIRIRPPRLPRPRPRPTQKPRP	0.0769
RRIRNRPPRLPRPRPRPEHAPRP	0.0107
RRIRFRPPRLPRPRPRPAFQPRP	0.243
RRIRIRPPRLPRPRPRPEKWPRP	-0.0117
RRIRGRPPRLPRPRPRPHYCPRP	0.167
RRIRRRPPRLPRPRPRPAGNPRP	-0.0218
RRIRARPPRLPRPRPRPVWLPRP	0.399
RRIRVRPPRLPRPRPRPANQPRP	-0.186
RRIRPRPPRLPRPRPRPTVEPRP	-0.104
RRIRVRPPRLPRPRPRPYSPPRP	-0.181
RRIRTRPPRLPRPRPRPEFTPRP	0.016
RRIRIRPPRLPRPRPRPVPRPRP	0.0562
RRIRYRPPRLPRPRPRPEGSPRP	-0.0779

Sequence	shrunken log2 fold change
RRIRVRPPRLPRPRPRPVVEPRP	-0.112
RRIRKRPPRLPRPRPRPHTTPRP	0.0925
RRIRGRPPRLPRPRPRPVQCPRP	0.102
RRIRHRPPRLPRPRPRPKFPPRP	0.442
RRIRPRPPRLPRPRPRPCNLPRP	-0.593
RRIRARPPRLPRPRPRPQYHPRP	-0.398
RRIRWRPPRLPRPRPRPMSRPRP	0.063
RRIRWRPPRLPRPRPRPGPGPRP	0.899
RRIRFRPPRLPRPRPRPSQFPRP	-0.44
RRIRRRPPRLPRPRPRPSYAPRP	0.0616
RRIRMRPPRLPRPRPRPFHFPRP	-0.313
RRIRLRPPRLPRPRPRPVMYPRP	-0.302
RRIRKRPPRLPRPRPRPQPSPRP	0.567
RRIRYRPPRLPRPRPRPCQKPRP	-0.0134
RRIRKRPPRLPRPRPRPLATPRP	0.527
RRIRHRPPRLPRPRPRPKGGPRP	0.0418
RRIRSRPPRLPRPRPRPAHKPRP	-0.152
RRIRGRPPRLPRPRPRPMQWPRP	-0.0537
RRIRHRPPRLPRPRPRPIPVPRP	-0.037
RRIRRRPPRLPRPRPRPDSNPRP	0.0666
RRIRLRPPRLPRPRPRPYMFPRP	-0.123
RRIRLRPPRLPRPRPRPAKGPRP	-0.00764
RRIRSRPPRLPRPRPRPRHYPRP	-0.172
RRIRRRPPRLPRPRPRPREAPRP	0.254
RRIRPRPPRLPRPRPRPRTVPRP	0.322

Sequence	shrunken log2 fold change
RRIRWRPPRLPRPRPRPAVEPRP	0.497
RRIRDRPPRLPRPRPRPHPIPRP	-0.152
RRIRFRPPRLPRPRPRPRHWPRP	0.437
RRIRPRPPRLPRPRPRPTFTPRP	0.101
RRIRGRPPRLPRPRPRPDKQPRP	0.0252
RRIRARPPRLPRPRPRPHQWPRP	0.137
RRIRQRPPRLPRPRPRPWEAPRP	-0.00204
RRIRNRPPRLPRPRPRPHYIPRP	-0.842
RRIRCRPPRLPRPRPRPKSAPRP	0.146
RRIRQRPPRLPRPRPRPPGLPRP	0.127
RRIRIRPPRLPRPRPRPANFPRP	-0.554
RRIRARPPRLPRPRPRPQTQPRP	0.628
RRIRGRPPRLPRPRPRPALCPRP	0.925
RRIRDRPPRLPRPRPRPCADPRP	0.167
RRIRIRPPRLPRPRPRPMYFPRP	-0.609
RRIRLRPPRLPRPRPRPYTFPRP	-0.00482
RRIRTRPPRLPRPRPRPNTWPRP	-0.178
RRIRLRPPRLPRPRPRPKGHPRP	-0.0999
RRIRCRPPRLPRPRPRPVGIPRP	-0.24
RRIRLRPPRLPRPRPRPCAYPRP	-0.189
RRIRKRPPRLPRPRPRPAYPPRP	-0.0401
RRIRTRPPRLPRPRPRPLECPRP	-0.0489
RRIRWRPPRLPRPRPRPWCDPRP	-0.0997
RRIRSRPPRLPRPRPRPVIKPRP	-0.476
RRIRQRPPRLPRPRPRPQNAPRP	-0.198
